Experimental data published in PMC9302817, “VEGF receptor heterodimers and homodimers are differentially expressed in neuronal and endothelial cell types” (PLoS ONE, 2022).

B1: VEGFR2 (mouse, endogenous in MAEC, MVEC, trigeminal ganglion neurons and mouse tissues) (receptor, UniProt P35918 20-1345, looked up)
chain: ASVGLPGDFLHPPKLSTQKDILTILANTTLQITCRGQRDLDWLWPNAQRDSEERVLVTECGGGDSIFCKTLTIPRVVGNDTGAYKCSYRDVDIASTVYVYVRDYRSPFIASVSDQHGIVYITENKNKTVVIPCRGSISNLNVSLCARYPEKRFVPDGNRISWDSEIGFTLPSYMISYAGMVFCEAKINDETYQSIMYIVVVVGYRIYDVILSPPHEIELSAGEKLVLNCTARTELNVGLDFTWHSPPSKSHHKKIVNRDVKPFPGTVAKMFLSTLTIESVTKSDQGEYTCVASSGRMIKRNRTFVRVHTKPFIAFGSGMKSLVEATVGSQVRIPVKYLSYPAPDIKWYRNGRPIESNYTMIVGDELTIMEVTERDAGNYTVILTNPISMEKQSHMVSLVVNVPPQIGEKALISPMDSYQYGTMQTLTCTVYANPPLHHIQWYWQLEEACSYRPGQTSPYACKEWRHVEDFQGGNKIEVTKNQYALIEGKNKTVSTLVIQAANVSALYKCEAINKAGRGERVISFHVIRGPEITVQPAAQPTEQESVSLLCTADRNTFENLTWYKLGSQATSVHMGESLTPVCKNLDALWKLNGTMFSNSTNDILIVAFQNASLQDQGDYVCSAQDKKTKKRHCLVKQLIILERMAPMITGNLENQTTTIGETIEVTCPASGNPTPHITWFKDNETLVEDSGIVLRDGNRNLTIRRVRKEDGGLYTCQACNVLGCARAETLFIIEGAQEKTNLEVIILVGTAVIAMFFWLLLVIVLRTVKRANEGELKTGYLSIVMDPDELPLDERCERLPYDASKWEFPRDRLKLGKPLGRGAFGQVIEADAFGIDKTATCKTVAVKMLKEGATHSEHRALMSELKILIHIGHHLNVVNLLGACTKPGGPLMVIVEFCKFGNLSTYLRGKRNEFVPYKSKGARFRQGKDYVGELSVDLKRRLDSITSSQSSASSGFVEEKSLSDVEEEEASEELYKDFLTLEHLICYSFQVAKGMEFLASRKCIHRDLAARNILLSEKNVVKICDFGLARDIYKDPDYVRKGDARLPLKWMAPETIFDRVYTIQSDVWSFGVLLWEIFSLGASPYPGVKIDEEFCRRLKEGTRMRAPDYTTPEMYQTMLDCWHEDPNQRPSFSELVEHLGNLLQANAQQDGKDYIVLPMSETLSMEEDSGLSLPTSPVSCMEEEEVCDPKFHYDNTAGISHYLQNSKRKSRPVSVKTFEDIPLEEPEVKVIPDDSQTDSGMVLASEELKTLEDRNKLSPSFGGMMPSKSRESVASEGSNQTSGYQSGYHSDDTDTTVYSSDEAGLLKMVDAAVHADSGTTLRSPPV
notes: Endogenous protein; also called KDR; flk-1; source: endogenous, MAEC and MVEC lysates; endogenous, mouse tissue lysates (thoracic aorta, portal vein, dorsal root ganglia, trigeminal ganglia, cornea); endogenous, fixed MAEC, MVEC and trigeminal ganglion neuronal cells
B2: VEGFR1 (mouse, endogenous in MAEC, MVEC, trigeminal ganglion neurons and mouse tissues) (receptor, UniProt P35969 23-1333, looked up)
chain: YGSGSKLKVPELSLKGTQHVMQAGQTLFLKCRGEAAHSWSLPTTVSQEDKRLSITPPSACGRDNRQFCSTLTLDTAQANHTGLYTCRYLPTSTSKKKKAESSIYIFVSDAGSPFIEMHTDIPKLVHMTEGRQLIIPCRVTSPNVTVTLKKFPFDTLTPDGQRITWDSRRGFIIANATYKEIGLLNCEATVNGHLYQTNYLTHRQTNTILDVQIRPPSPVRLLHGQTLVLNCTATTELNTRVQMSWNYPGKATKRASIRQRIDRSHSHNNVFHSVLKINNVESRDKGLYTCRVKSGSSFQSFNTSVHVYEKGFISVKHRKQPVQETTAGRRSYRLSMKVKAFPSPEIVWLKDGSPATLKSARYLVHGYSLIIKDVTTEDAGDYTILLGIKQSRLFKNLTATLIVNVKPQIYEKSVSSLPSPPLYPLGSRQVLTCTVYGIPRPTITWLWHPCHHNHSKERYDFCTENEESFILDPSSNLGNRIESISQRMTVIEGTNKTVSTLVVADSQTPGIYSCRAFNKIGTVERNIKFYVTDVPNGFHVSLEKMPAEGEDLKLSCVVNKFLYRDITWILLRTVNNRTMHHSISKQKMATTQDYSITLNLVIKNVSLEDSGTYACRARNIYTGEDILRKTEVLVRDSEAPHLLQNLSDYEVSISGSTTLDCQARGVPAPQITWFKNNHKIQQEPGIILGPGNSTLFIERVTEEDEGVYRCRATNQKGAVESAAYLTVQGTSDKSNLELITLTCTCVAATLFWLLLTLFIRKLKRSSSEVKTDYLSIIMDPDEVPLDEQCERLPYDASKWEFARERLKLGKSLGRGAFGKVVQASAFGIKKSPTCRTVAVKMLKEGATASEYKALMTELKILTHIGHHLNVVNLLGACTKQGGPLMVIVEYCKYGNLSNYLKSKRDLFCLNKDAALHMELKKESLEPGLEQGQKPRLDSVSSSSVTSSSFPEDRSVSDVEGDEDYSEISKQPLTMEDLISYSFQVARGMEFLSSRKCIHRDLAARNILLSENNVVKICDFGLARDIYKNPDYVRRGDTRLPLKWMAPESIFDKVYSTKSDVWSYGVLLWEIFSLGGSPYPGVQMDEDFCSRLKEGMRMRTPEYATPEIYQIMLDCWHKDPKERPRFAELVEKLGDLLQANVQQDGKDYIPLNAILTRNSGFTYSTPTFSEDLFKDGFADPHFHSGSSDDVRYVNAFKFMSLERIKTFEELSPNSTSMFEDYQLDTSTLLGSPLLKRFTWTETKPKASMKIDLRIASKSKEAGLSDLPRPSFCFSSCGHIRPVQDDESELGKESCCSPPPDYNSVVLYSSPPA
notes: VEGF receptor 1 (VEGFR-1, flt-1), endogenous in mouse aortic and venous endothelial cell lines, thy1-YFP mouse trigeminal ganglion neurons and mouse tissues; Endogenous protein; also called flt-1; Flt-1; source: endogenous, MAEC and MVEC lysates; endogenous, mouse tissue lysates (thoracic aorta, portal vein, dorsal root ganglia, trigeminal ganglia, cornea); endogenous, fixed MAEC, MVEC and …

Experiments:
[1] = target: the molecule itself; test: proximity ligation; Duolink PLA on fixed MVEC; anti-VEGFR1 and anti-VEGFR2 with PLUS and MINUS probes (the same antibody with both probes for homodimers); signal only within 40 nm
[2] = target: B2; test: as above; details: partners not purified
[3] = target: the molecule itself; test: proximity ligation; Duolink PLA on fixed mouse trigeminal ganglion (TG) neuronal cells; anti-VEGFR1 and anti-VEGFR2 with PLUS and MINUS probes (the same antibody with both probes for homodimers); signal only within 40 nm
[4] = target: B2; test: as above; details: partners not purified

Row | mean PLA fluorescence intensity per cell [2] | mean PLA fluorescence intensity per cell [4] | Binder | mean PLA fluorescence intensity per cell [1] | mean PLA fluorescence intensity per cell [3]
1 | 99600 | 268000 | B1 | 2.58e+06 | 706000
2 | – | – | B2 | 43300 | 2200
